Data published in patent US20130330346A1 (Novartis, published 2013).

T1: Human CXCR2 (human, UniProt P25025 1-360)
T1 construct: Some cell lines carry an N-terminal 3xHA tag; also called hCXCR2; huCXCR2
T1 sequence: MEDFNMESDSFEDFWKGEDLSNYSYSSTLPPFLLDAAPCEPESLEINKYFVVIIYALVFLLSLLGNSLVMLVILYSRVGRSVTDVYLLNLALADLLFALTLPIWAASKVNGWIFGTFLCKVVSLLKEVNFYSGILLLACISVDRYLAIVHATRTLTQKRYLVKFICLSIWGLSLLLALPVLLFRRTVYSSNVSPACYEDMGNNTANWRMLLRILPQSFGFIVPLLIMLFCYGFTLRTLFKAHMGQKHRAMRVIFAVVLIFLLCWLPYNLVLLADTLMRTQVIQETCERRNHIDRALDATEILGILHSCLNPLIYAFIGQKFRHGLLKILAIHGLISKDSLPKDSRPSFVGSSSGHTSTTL

T2: Cynomolgus CXCR2 (cynomolgus, UniProt Q28519 3-353 (rhesus entry))
T2 construct: On transfected HEK293T or RBL-2H3 cells; native on cynomolgus neutrophils in the WBSC assay; also called cCXCR2; cynoCXCR2
T2 chain: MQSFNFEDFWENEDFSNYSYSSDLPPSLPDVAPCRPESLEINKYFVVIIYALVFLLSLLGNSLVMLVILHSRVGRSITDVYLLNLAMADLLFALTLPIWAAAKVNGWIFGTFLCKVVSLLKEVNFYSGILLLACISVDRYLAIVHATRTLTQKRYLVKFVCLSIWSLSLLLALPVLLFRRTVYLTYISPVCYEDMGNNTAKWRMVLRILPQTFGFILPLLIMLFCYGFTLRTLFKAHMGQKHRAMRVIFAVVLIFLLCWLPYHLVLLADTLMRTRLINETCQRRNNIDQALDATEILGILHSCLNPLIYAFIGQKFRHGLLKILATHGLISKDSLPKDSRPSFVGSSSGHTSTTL


Legend:
Human CXCR2 [1] = target: T1, Human CXCR2; assay: FACS competition vs 3 nM FMAT-Blue Gro-α
Description: (§1) Multivalent anti-CXCR2Nanobodies were titrated against 3 nM FMAT-Blue-labeled Gro-α in the FACS ligand competition assay on human and cynomolgus CXCR2 (Table 14). On human CXCR2, blocking potencies range between double digit nM and sub-nM whereas on cynomolgus CXCR2, they range between single and double digit nM.

Cynomolgus CXCR2 [2] = target: T2, Cynomolgus CXCR2; assay: FACS competition vs 3 nM FMAT-Blue Gro-α
Description: as §1

Human CXCR2 [3] = target: T1, Human CXCR2; assay: cell-based or functional assay
Cynomolgus CXCR2 [4] = target: T2, Cynomolgus CXCR2; assay: cell-based or functional assay

| % inhibition of max (Human CXCR2 [1]) [%] | IC50 (Human CXCR2 [1]) [nM] | % inhibition of max (Cynomolgus CXCR2 [2]) [%] | IC50 (Cynomolgus CXCR2 [2]) [nM] | FLIPR % inhibition of max (Human CXCR2 [3]) [%] | FLIPR IC50 (GRO-α induced calcium release) (Human CXCR2 [3]) [nM] | FLIPR % inhibition of max (Cynomolgus CXCR2 [4]) [%] | FLIPR IC50 (GRO-α induced calcium release) (Cynomolgus CXCR2 [4]) [nM] | Binder |
| --- | --- | --- | --- | --- | --- | --- | --- | --- |
| 99 | 35.2 | 60 | 97.4 | 100 | 137 | – | – | CXCR20011 (VHH, Bivalent: two VHH joined by a GlySer linker; also called 97A9-35GS-97A9; not shown: C-terminal c-myc tag and His6 tag coded by pAX100) EVQLVESGGGLVQPGGSLRLSCVASGSIVRINTMGWYRQTPGKQRELVADITSGGNINYIDAVKGRFTISRDNTKNTVYLQMNSLKPEDTAVYYCNAEIVVLVGVWTQRARTGNYWGQGTQVTVSSGGGGSGGGGSGGGGSGGGGSGGGGSGGGGSGGGGSEVQLVESGGGLVQPGGSLRLSCVASGSIVRINTMGWYRQTPGKQRELVADITSGGNINYIDAVKGRFTISRDNTKNTVYLQMNSLKPEDTAVYYCNAEIVVLVGVWTQRARTGNYWGQGTQVTVSS |
| 100 | 4.9 | 97 | 6.42 | 100 | 17.8 | 100 | 12.7 | CXCR20027 (bispecific antibody, Two different VHH joined by a GlySer linker; also called 163E3-35GS-163D2; not shown: C-terminal c-myc tag and His6 tag coded by pAX100) EVQLVESGGGLVQPGGSLRLSCVASGRIFSSNAMGWFRQAPGKEREFVAAITWRSGGSAYYADSAKGRFTISRDNAKNTVYLQMNSLKPEDTAVYYCAAGGSSWLSFPPDYWGQGTQVTVSSGGGGSGGGGSGGGGSGGGGSGGGGSGGGGSGGGGSEVQLVESGGGLVQAGGSLRLSCAASGRTFSDYAMGWFRQAPGKEREFVAAITWNGGRVFYTASVKGRFTISRDNAKNTMYLQMNSLKPEDTAVYYCAADKDRRTDYLGHPVAYWGQGTQVTVSS |
| 99 | 3.4 | 73 | 29.5 | 100 | 22.9 | 100 | 1080 | CXCR20017 (other, Two different VHH joined by a GlySer linker; also called 97A9-35GS-137B7; not shown: C-terminal c-myc tag and His6 tag coded by pAX100) EVQLVESGGGLVQPGGSLRLSCVASGSIVRINTMGWYRQTPGKQRELVADITSGGNINYIDAVKGRFTISRDNTKNTVYLQMNSLKPEDTAVYYCNAEIVVLVGVWTQRARTGNYWGQGTQVTVSSGGGGSGGGGSGGGGSGGGGSGGGGSGGGGSGGGGSEVQLVESGGGLVQPGGSVRLSCVASGIIFRLSALGWTRQGPGKAREWVAGINSDGTTNYADPVKGRFTISRDNAKNTIYLHMDMLKPEDTAVYYCASGKYRGQGTQVTVSS |
| 99 | 0.7 | 81.5 | 99 | 100 | 2.78 | 100 | 2870 | CXCR20015 (other, Two different VHH joined by a GlySer linker; also called 2B2-35GS-137B7; not shown: C-terminal c-myc tag and His6 tag coded by pAX100) EVQLVESGGELVQPGGSLRLSCAASGSILTINAMGWYRQAPGKQRELVVRRTRGGSTTYQDSVKGRFTISADIAKKTMYLQMNSLKPEDTAVYYCMLDDRGGVYWGQGTQVTVSSGGGGSGGGGSGGGGSGGGGSGGGGSGGGGSGGGGSEVQLVESGGGLVQPGGSVRLSCVASGIIFRLSALGWTRQGPGKAREWVAGINSDGTTNYADPVKGRFTISRDNAKNTIYLHMDMLKPEDTAVYYCASGKYRGQGTQVTVSS |
| 98 | 1.9 | 47 | 50.8 | – | – | – | – | CXCR20018 (other, Two different VHH joined by a GlySer linker; also called 137B7-35GS-97A9; not shown: C-terminal c-myc tag and His6 tag coded by pAX100) EVQLVESGGGLVQPGGSVRLSCVASGIIFRLSALGWTRQGPGKAREWVAGINSDGTTNYADPVKGRFTISRDNAKNTIYLHMDMLKPEDTAVYYCASGKYRGQGTQVTVSSGGGGSGGGGSGGGGSGGGGSGGGGSGGGGSGGGGSEVQLVESGGGLVQPGGSLRLSCVASGSIVRINTMGWYRQTPGKQRELVADITSGGNINYIDAVKGRFTISRDNTKNTVYLQMNSLKPEDTAVYYCNAEIVVLVGVWTQRARTGNYWGQGTQVTVSS |
| 50.6 | 0.044 | 81 | 1.8 | – | – | – | – | CXCR20019 (VHH, Bivalent: two VHH joined by a 9GS linker; also called 2B2-9GS-2B2; not shown: C-terminal c-myc tag and His6 tag coded by pAX100) EVQLVESGGELVQPGGSLRLSCAASGSILTINAMGWYRQAPGKQRELVVRRTRGGSTTYQDSVKGRFTISADIAKKTMYLQMNSLKPEDTAVYYCMLDDRGGVYWGQGTQVTVSSGGGGSGGGSEVQLVESGGELVQPGGSLRLSCAASGSILTINAMGWYRQAPGKQRELVVRRTRGGSTTYQDSVKGRFTISADIAKKTMYLQMNSLKPEDTAVYYCMLDDRGGVYWGQGTQVTVSS |
| 98 | 0.7 | 98 | 2.27 | 100 | 7.86 | 100 | 4.27 | CXCR20036 (other, Biparatopic: two VHH joined by a GlySer linker; also called 54B12-35GS-163D2; 54B12-163D2; not shown: C-terminal c-myc tag and His6 tag coded by pAX100) EVQLVESGGGLVQAGGSLTLSCAVSGSTFRINTMGWYRRAPGKQRELVAARDRGGYINYVDSVKGRFTVSRDNAKPTMYLQMNSLKPEDTAVYYCHAGTQDRTGRNFDRWGQGTQVTVSSGGGGSGGGGSGGGGSGGGGSGGGGSGGGGSGGGGSEVQLVESGGGLVQAGGSLRLSCAASGRTFSDYAMGWFRQAPGKEREFVAAITWNGGRVFYTASVKGRFTISRDNAKNTMYLQMNSLKPEDTAVYYCAADKDRRTDYLGHPVAYWGQGTQVTVSS |
| 90 | 0.9 | 98.5 | 4.2 | 100 | 2.93 | 100 | 29.2 | CXCR20013 (bispecific antibody, Biparatopic: two VHH joined by a GlySer linker; also called 2B2-35GS-97A9; not shown: C-terminal c-myc tag and His6 tag coded by pAX100) EVQLVESGGELVQPGGSLRLSCAASGSILTINAMGWYRQAPGKQRELVVRRTRGGSTTYQDSVKGRFTISADIAKKTMYLQMNSLKPEDTAVYYCMLDDRGGVYWGQGTQVTVSSGGGGSGGGGSGGGGSGGGGSGGGGSGGGGSGGGGSEVQLVESGGGLVQPGGSLRLSCVASGSIVRINTMGWYRQTPGKQRELVADITSGGNINYIDAVKGRFTISRDNTKNTVYLQMNSLKPEDTAVYYCNAEIVVLVGVWTQRARTGNYWGQGTQVTVSS |
| 100 | 0.8 | 88 | 5.7 | 100 | 2.36 | 100 | 1100 | CXCR20016 (other, Two different VHH joined by a GlySer linker; also called 137B7-35GS-2B2; not shown: C-terminal c-myc tag and His6 tag coded by pAX100) EVQLVESGGGLVQPGGSVRLSCVASGIIFRLSALGWTRQGPGKAREWVAGINSDGTTNYADPVKGRFTISRDNAKNTIYLHMDMLKPEDTAVYYCASGKYRGQGTQVTVSSGGGGSGGGGSGGGGSGGGGSGGGGSGGGGSGGGGSEVQLVESGGELVQPGGSLRLSCAASGSILTINAMGWYRQAPGKQRELVVRRTRGGSTTYQDSVKGRFTISADIAKKTMYLQMNSLKPEDTAVYYCMLDDRGGVYWGQGTQVTVSS |
| 99.1 | 0.606 | – | – | – | – | – | – | CXCR20012 (other, Bivalent: two VHH joined by a GlySer linker; also called 137B7-35GS-137B7; not shown: C-terminal c-myc tag and His6 tag coded by pAX100) EVQLVESGGGLVQPGGSVRLSCVASGIIFRLSALGWTRQGPGKAREWVAGINSDGTTNYADPVKGRFTISRDNAKNTIYLHMDMLKPEDTAVYYCASGKYRGQGTQVTVSSGGGGSGGGGSGGGGSGGGGSGGGGSGGGGSGGGGSEVQLVESGGGLVQPGGSVRLSCVASGIIFRLSALGWTRQGPGKAREWVAGINSDGTTNYADPVKGRFTISRDNAKNTIYLHMDMLKPEDTAVYYCASGKYRGQGTQVTVSS |
| 98.5 | 1.13 | 98.5 | 2.09 | 100 | 17.1 | 100 | 10.1 | CXCR20029 (other, Biparatopic: two VHH joined by a GlySer linker; also called 163E3-35GS-54B12; not shown: C-terminal c-myc tag and His6 tag coded by pAX100) EVQLVESGGGLVQPGGSLRLSCVASGRIFSSNAMGWFRQAPGKEREFVAAITWRSGGSAYYADSAKGRFTISRDNAKNTVYLQMNSLKPEDTAVYYCAAGGSSWLSFPPDYWGQGTQVTVSSGGGGSGGGGSGGGGSGGGGSGGGGSGGGGSGGGGSEVQLVESGGGLVQAGGSLTLSCAVSGSTFRINTMGWYRRAPGKQRELVAARDRGGYINYVDSVKGRFTVSRDNAKPTMYLQMNSLKPEDTAVYYCHAGTQDRTGRNFDRWGQGTQVTVSS |
